The text below walks through data of the supplement of paper PMC9170038.

The subject of this series is MS2 coat protein. Put plainly: apparent KD of MS2 coat protein; higher = weaker reporter binding. The following applies: Eterna round: R107. In outline:
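SNAP-549-labelled MS2 coat protein was titrated onto designed RNA switches that had been transcribed on-chip from Illumina sequencing clusters. Amounts doubled from 0.7 or 1.5 nM to 3 µM in 100 mM Tris-HCl pH 7.5, 80 mM KCl, 4 mM MgCl2, with constant ligand or without. Apparent KD is the median per design of normalised cluster binding-curve fits.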

Where [1] appears, read: input ligand: theophylline 20 uM.
Where [2] appears, read: input ligand: theophylline 2 mM.
[3] abbreviates: input ligand: tryptophan 2.4 mM.

On to “UAUCCACAUGAGGAUCACCCAUGUAGGGAAGGAGCGGUGAUUUCACCAGGUAGGUCGCCUUGCUCAGGGUUGCCGGUGGAAUCGU [Exclusion - Arginine A (Freestyle 34)]”, for which the “apparent KD of MS2 coat protein” value runs as follows: (input ligand: arginine 13.2 mM) 24.9 nM; (input ligand: none) 12.7 nM; under setting [1], 19.7 nM; under setting [2], 13.3 nM; under setting [3], 9.73 nM.

In the case of “UAUCCACAUGAGGAUCACCCAUGUUAGGAAGGAGCGGUGGAUGCACCAGGUAGGUCGCCUAGCUGAGGACUGUCGGUGGAUUCGU [Exclusion - Arginine A (Freestyle 21)]”, the “apparent KD of MS2 coat protein” value by setting is: (input ligand: arginine 13.2 mM) 56.5 nM; (input ligand: none) 86.5 nM; under setting [1], 92.1 nM; under setting [2], 131 nM; under setting [3], 94.9 nM.

As for “UAUCGUCAGACGGCCGCCACUAGAACAUGAGGAUCACCCAUGUACUAGUGGCAUACCUCAUGAACUAGGACCGGGUCUGACGAAU [(Trp1)-(Ms2)-(T)'-(M)'-(Trp2)_Design10]”, the “apparent KD of MS2 coat protein” value was determined as 10.2 nM (input ligand: arginine 13.2 mM), 11.8 nM under setting [1] and 10.2 nM under setting [2].

For “UAUUUGGUGCGCGAGUGUUGGAUAAUUGAUACCAGUGAAGAAGAGCGCCCUUGGCAGCGAAUCCUAACAUGAGGAUCACCCAUGU [5.T]”, the “apparent KD of MS2 coat protein” value by setting is: (input ligand: arginine 13.2 mM) 35.9 nM; under setting [1], 55.3 nM; under setting [3], 35.4 nM.

Regarding “UCACGACGGAUGGAUACCAGCGACAUGAGGAUCACCCAUGUAUGAGGAUCAGCCAUGUUAUGCCCUUGGCAGCCACGAAGGUCAU [YYYMULLIN]”, the “apparent KD of MS2 coat protein” value runs as follows: (input ligand: arginine 13.2 mM) 13.2 nM; (input ligand: none) 19 nM; under setting [1], 29.3 nM; under setting [2], 195 nM; under setting [3], 18.2 nM.

“UCACGUGGGAAUGAUACCAGCCACAUGAGGAUCACCCAUGUGCAUGGUGUGAGCUUCACGGGCCCUUGGCAGCAUUUCAAGUCGC [Agelaus]”: the “apparent KD of MS2 coat protein” value reads like this: (input ligand: arginine 13.2 mM) 39.9 nM; under setting [1], 93.1 nM; under setting [3], 37.9 nM.

On to “UCGAUGGUACCCGAUACCAGCAAUACAUCACAGACCUGAUACAUGAGGAUCACCCAUGUGUGCCCUUGGCAGCGGGUCCUGAAAA [theeternabot_exclusion_MS2_Theo_B_25]”, for which the “apparent KD of MS2 coat protein” value was determined as 17.5 nM (input ligand: arginine 13.2 mM), 28.5 nM under setting [1] and 20.6 nM under setting [3].

For the sequence “UCGCUCGCCGCAAGGCGAGCGAGUUGCGAUACCAGCCCGGAAACGGGCCCUUGGCAGCGCACAUGAGGAUCACCCAUGUCAUGUU [#1 Exclusion - Theophylline A Attempt #4 (HarryS)]”, the “apparent KD of MS2 coat protein” value runs as follows: (input ligand: arginine 13.2 mM) 24.7 nM; (input ligand: none) 25 nM; under setting [1], 31.3 nM; under setting [2], 30.4 nM; under setting [3], 16.1 nM.

As to “UCGCUCUGGGUGGGAUCCGGAGAUGUGGAAGGAGCGCUGGUUACAGCAGGUAGGUCGCCAACGGACAUGAGGAUCACCCAUGUAC [Same State - Arginine A (Freestyle 16)]”, the “apparent KD of MS2 coat protein” value (input ligand: arginine 13.2 mM) was determined as 53.3 nM; the “apparent KD of MS2 coat protein” value (input ligand: none) came out at 41.3 nM; the “apparent KD of MS2 coat protein” value under setting [1] worked out at 49.4 nM; the “apparent KD of MS2 coat protein” value under setting [2] worked out at 39.5 nM; the “apparent KD of MS2 coat protein” value under setting [3] amounted to 36.2 nM.

“UCGGGCAGAGCGGCCGCCACUGUAUGGCAUGCGGAUGAAGGAACAUGAGGAUCACCCAUGUAGAUUAGGACCGGGCUUGCGGAGA [p''pmullin]”: the “apparent KD of MS2 coat protein” value was 29.1 nM (input ligand: arginine 13.2 mM); 19.8 nM (input ligand: none); 22.9 nM under setting [1]; 17.7 nM under setting [2]; 20 nM under setting [3].

“UCGGGCAGAGCGGCCGCCACUGUAUGGCGUGCGGAUGACGGAACAUGAGGAUCACCCAUGUUGUUUAGGACCGGGCUUGCCGCGA [cocmullin]”: the “apparent KD of MS2 coat protein” value (input ligand: arginine 13.2 mM) came to 14 nM, the “apparent KD of MS2 coat protein” value under setting [1] is 14.7 nM and the “apparent KD of MS2 coat protein” value under setting [2] was found to be 11.5 nM.

On to “UCGUAUGCGGCGGCCGCCACUCGCGGAUAACGAGAGCUUAACAUGAGGAUCACCCAUGUGUCAUGGAGGACCGGGCCCAUUCACA [popmullin]”, for which the “apparent KD of MS2 coat protein” value was 30.4 nM (input ligand: arginine 13.2 mM), 40.2 nM under setting [1] and 37.5 nM under setting [2].

Regarding “UCGUGUAUAACGGAUACCAGUGAGAAGGAUACAUGAGGAUCACCCAUGUGAGUUGAUGUACACCCUUGGCAGCUGUAUAUAUCUA [llpmullin]”, the “apparent KD of MS2 coat protein” value (input ligand: arginine 13.2 mM) was 58.3 nM, the “apparent KD of MS2 coat protein” value under setting [1] was 81.9 nM and the “apparent KD of MS2 coat protein” value under setting [3] came to 73.3 nM.

Take “UCGUGUGUUUCGGAUACCAGUGAAAUCGAUACAUGAGGAUCACCCAUGUGAGAGGAUGUACACCCUUGGCAGCUGGCUGUAGCGG [yyzmullin]”: the “apparent KD of MS2 coat protein” value was determined as 32.1 nM (input ligand: arginine 13.2 mM), 56.9 nM under setting [1] and 44.3 nM under setting [3].
